Data published in patent publication US20140286957A1 (Teva, published 2014).
Like-named read-outs stand apart in the source and are kept apart here. Blank lines part the entries; values can stand above or below the binder they belong to.

Key:
Human CD1d/β2M = biological target: T1, Human CD1d/β2M (human, UniProt P15813 20-301; P61769 21-119); assay: SPR, transfection supernatant
T1 construct: also called hCD1d; recombinant human CD1d

Human CD1d on cells [1] = biological target: T2, Human CD1d on cells (human, UniProt P15813 20-335); assay: cell-based or functional assay
T2 sequence (looked up): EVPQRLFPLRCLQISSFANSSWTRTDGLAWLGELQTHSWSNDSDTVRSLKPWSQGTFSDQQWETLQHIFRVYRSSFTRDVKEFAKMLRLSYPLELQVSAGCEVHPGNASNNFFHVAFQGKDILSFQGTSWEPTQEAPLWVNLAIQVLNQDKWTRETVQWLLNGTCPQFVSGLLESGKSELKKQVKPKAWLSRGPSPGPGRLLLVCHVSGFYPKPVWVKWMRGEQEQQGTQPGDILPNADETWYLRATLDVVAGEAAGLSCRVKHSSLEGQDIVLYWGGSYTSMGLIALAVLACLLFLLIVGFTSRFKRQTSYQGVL

Human CD1d on cells [2] = biological target: T2, Human CD1d on cells; assay: cell-based or functional assay; remark: listed apart in the source
Human CD1d on cells [3] = biological target: T2, Human CD1d on cells; assay: cell-based or functional assay; remark: listed apart in the source

- Kd (Human CD1d/β2M): 144 pM
B1: 401.11.69 (antibody, name in Kabat numbering, V domains shown)
VH: QVQLVGSGGGLVKPGRSLRLSCAASGFTFDDYAMHWVRQAPGKGLEWVATIIWNSAIIGYADSVKGRFIVSRDNAKNSLYLQMNSLRAEDMALYYCAKDMCSDSGCPDGYFDSWGQGTLVTVSS
VL: DIQMTQSPSSVSASVGDRVTITCRASQHISSWLAWYQQKPGKAPNLLIYAASSLQSGVSSRFSGSGSGTDFTLTISSLQPEDFATYYCQQANRFPLTFGGGTKLEIKR

- binding result (Human CD1d/β2M): no binding
B2: 401.11.82 (antibody, name in Kabat numbering, V domains shown)
VH: QVQLVGSGGGLVKPGRSLRLSCAASGFTFDDYAMHWVRQAPGKGLEWVATIIWNSAIIGYADSVKGRFIVSRDNAKNSLYLQMNSLRAEDMALYYCAKDMCSSVGCPDGYFDSWGQGTLVTVSS
VL: DIQMTQSPSSVSASVGDRVTITCRASQHISSWLAWYQQKPGKAPNLLIYAASSLQSGVSSRFSGSGSGTDFTLTISSLQPEDFATYYCQQANRFPLTFGGGTKLEIKR

- Kd (Human CD1d/β2M): 549 pM
B3: 401.11.70 (antibody, name in Kabat numbering, V domains shown)
VH: QVQLVGSGGGLVKPGRSLRLSCAASGFTFDDYAMHWVRQAPGKGLEWVATIIWNSAIIGYADSVKGRFIVSRDNAKNSLYLQMNSLRAEDMALYYCAKDMCSTSGCPDGYFDSWGQGTLVTVSS
VL: DIQMTQSPSSVSASVGDRVTITCRASQHISSWLAWYQQKPGKAPNLLIYAASSLQSGVSSRFSGSGSGTDFTLTISSLQPEDFATYYCQQANRFPLTFGGGTKLEIKR

- NKT IL-4 EC50 (moDC) (Human CD1d on cells [1]): 1.69 ng/mL
- NKT IL-13 EC50 (moDC) (Human CD1d on cells [1]): 10.5 ng/mL
B4: 401.11.159 (antibody, IgG4, V domains shown)
VH: EVQLVESGGGLVQPGRSLRLSCAASGFTFDDYAMHWVRQAPGKGLEWVATIIWNSAIIGYADSVKGRFIVSRDNAKNSLYLQMNSLRAEDMALYYCAKDMCSSGGCPDGYFDSWGQGTLVTVSS
VL: DIQMTQSPSSVSASVGDRVTITCRASQHISSWLAWYQQKPGKAPKLLIYAASSLQSGVSSRFSGSGSGTDFTLTISSLQPEDFATYYCQQANRFPLTFGGGTKLEIKR

- NKT IFN-γ EC50 (moDC) (Human CD1d on cells [2]): 49.5 ng/mL
- NKT IL-4 EC50 (moDC) (Human CD1d on cells [2]): 1.31 ng/mL
- NKT IL-5 EC50 (moDC) (Human CD1d on cells [2]): 3.35 ng/mL
- NKT IL-13 EC50 (moDC) (Human CD1d on cells [2]): 4.09 ng/mL
B5: 401.11.180 (antibody, IgG4, V domains shown)
VH: QVQLVGSGGGLVKPGRSLRLSCAASGFTFDDYAMHWVRQAPGKGLEWVATIIWNSAIIGYADSVKGRFIVSRDNAKNSLYLQMNSLRAEDTALYYCAKDLCSSGGCPEGYFDSWGQGTLVTVSS
VL: DIQMTQSPSSVSASVGDRVTITCRASQHISSWLAWYQQKPGKAPKLLIYAASSLQSGVPSRFSGSGSGTDFTLTISSLQPEDFATYYCQQANRFPLTFGGGTKLEIKR

- Kd (Human CD1d/β2M): 272 pM
B6: 401.11.77 (antibody, name in Kabat numbering, V domains shown)
VH: QVQLVGSGGGLVKPGRSLRLSCAASGFTFDDYAMHWVRQAPGKGLEWVATIIWNSAIIGYADSVKGRFIVSRDNAKNSLYLQMNSLRAEDMALYYCAKDMCSGSGCPDGYFDSWGQGTLVTVSS
VL: DIQMTQSPSSVSASVGDRVTITCRASQHISSWLAWYQQKPGKAPNLLIYAASSLQSGVSSRFSGSGSGTDFTLTISSLQPEDFATYYCQQANRFPLTFGGGTKLEIKR

- NKT IFN-γ EC50 (THP-1) (Human CD1d on cells [3]): 3.25 ng/mL
- NKT IFN-γ EC50 (moDC) (Human CD1d on cells [3]): 2.63 ng/mL
- NKT IL-4 EC50 (THP-1) (Human CD1d on cells [3]): 3.19 ng/mL
- NKT IL-4 EC50 (moDC) (Human CD1d on cells [3]): 1.1 ng/mL
- NKT IL-13 EC50 (THP-1) (Human CD1d on cells [3]): 5.04 ng/mL
B7: 401.11.181 (antibody, IgG4, V domains shown)
VH: QVQLVESGGGLVKPGRSLRLSCAASGFTFDDYAMHWVRQAPGKGLEWVATIIWNSAIIGYADSVKGRFIVSRDNAKNSLYLQMNSLRAEDTALYYCAKDMCSSGGCPDGYFDSWGQGTLVTVSS
VL: DIQMTQSPSSVSASVGDRVTITCRASQHISSWLAWYQQKPGKAPKLLIYAASSLQSGVPSRFSGSGSGTDFTLTISSLQPEDFATYYCQQANRFPLTFGGGTKLEIKR

- Kd (Human CD1d/β2M): 82300 pM
B8: 401.11.85 (antibody, name in Kabat numbering, V domains shown)
VH: QVQLVGSGGGLVKPGRSLRLSCAASGFTFDDYAMHWVRQAPGKGLEWVATIIWNSAIIGYADSVKGRFIVSRDNAKNSLYLQMNSLRAEDMALYYCAKDMCSSYGCPDGYFDSWGQGTLVTVSS
VL: DIQMTQSPSSVSASVGDRVTITCRASQHISSWLAWYQQKPGKAPNLLIYAASSLQSGVSSRFSGSGSGTDFTLTISSLQPEDFATYYCQQANRFPLTFGGGTKLEIKR

- Kd (Human CD1d/β2M): < 10 pM
B9: 401.11.71 (antibody, name in Kabat numbering, V domains shown)
VH: QVQLVGSGGGLVKPGRSLRLSCAASGFTFDDYAMHWVRQAPGKGLEWVATIIWNSAIIGYADSVKGRFIVSRDNAKNSLYLQMNSLRAEDMALYYCAKDMCSWSGCPDGYFDSWGQGTLVTVSS
VL: DIQMTQSPSSVSASVGDRVTITCRASQHISSWLAWYQQKPGKAPNLLIYAASSLQSGVSSRFSGSGSGTDFTLTISSLQPEDFATYYCQQANRFPLTFGGGTKLEIKR

- Kd (Human CD1d/β2M): 527 pM
B10: 401.11.73 (antibody, name in Kabat numbering, V domains shown)
VH: QVQLVGSGGGLVKPGRSLRLSCAASGFTFDDYAMHWVRQAPGKGLEWVATIIWNSAIIGYADSVKGRFIVSRDNAKNSLYLQMNSLRAEDMALYYCAKDMCSVSGCPDGYFDSWGQGTLVTVSS
VL: DIQMTQSPSSVSASVGDRVTITCRASQHISSWLAWYQQKPGKAPNLLIYAASSLQSGVSSRFSGSGSGTDFTLTISSLQPEDFATYYCQQANRFPLTFGGGTKLEIKR

- Kd (Human CD1d/β2M): 649 pM
B11: 401.11.72 (antibody, name in Kabat numbering, V domains shown)
VH: QVQLVGSGGGLVKPGRSLRLSCAASGFTFDDYAMHWVRQAPGKGLEWVATIIWNSAIIGYADSVKGRFIVSRDNAKNSLYLQMNSLRAEDMALYYCAKDMCSLSGCPDGYFDSWGQGTLVTVSS
VL: DIQMTQSPSSVSASVGDRVTITCRASQHISSWLAWYQQKPGKAPNLLIYAASSLQSGVSSRFSGSGSGTDFTLTISSLQPEDFATYYCQQANRFPLTFGGGTKLEIKR

- Kd (Human CD1d/β2M): 1550 pM
B12: 401.11.83 (antibody, name in Kabat numbering, V domains shown)
VH: QVQLVGSGGGLVKPGRSLRLSCAASGFTFDDYAMHWVRQAPGKGLEWVATIIWNSAIIGYADSVKGRFIVSRDNAKNSLYLQMNSLRAEDMALYYCAKDMCSSKGCPDGYFDSWGQGTLVTVSS
VL: DIQMTQSPSSVSASVGDRVTITCRASQHISSWLAWYQQKPGKAPNLLIYAASSLQSGVSSRFSGSGSGTDFTLTISSLQPEDFATYYCQQANRFPLTFGGGTKLEIKR

- NKT IL-4 EC50 (moDC) (Human CD1d on cells [1]): 12.9 ng/mL
- NKT IL-13 EC50 (moDC) (Human CD1d on cells [1]): 57.5 ng/mL
B13: 401.11.151 (antibody, IgG4, V domains shown)
VH: EVQLVESGGGLVQPGRSLRLSCAASGFTFDDYAMHWVRQAPGKGLEWVATIIWNSAIIGYADSVKGRFIVSRDNAKNSLYLQMNSLRAEDTALYYCAKDMCSSSGCPDGYFDSWGQGTLVTVSS
VL: DIQMTQSPSSVSASVGDRVTITCRASQHISSWLAWYQQKPGKAPKLLIYAASSLQSGVPSRFSGSGSGTDFTLTISSLQPEDFATYYCQQANRFPLTFGGGTKLEIKR

- Kd (Human CD1d/β2M): 2340 pM
B14: 401.11.80 (antibody, name in Kabat numbering, V domains shown)
VH: QVQLVGSGGGLVKPGRSLRLSCAASGFTFDDYAMHWVRQAPGKGLEWVATIIWNSAIIGYADSVKGRFIVSRDNAKNSLYLQMNSLRAEDMALYYCAKDMCSSWGCPDGYFDSWGQGTLVTVSS
VL: DIQMTQSPSSVSASVGDRVTITCRASQHISSWLAWYQQKPGKAPNLLIYAASSLQSGVSSRFSGSGSGTDFTLTISSLQPEDFATYYCQQANRFPLTFGGGTKLEIKR

- binding result (Human CD1d/β2M): no binding
B15: 401.11.75 (antibody, name in Kabat numbering, V domains shown)
VH: QVQLVGSGGGLVKPGRSLRLSCAASGFTFDDYAMHWVRQAPGKGLEWVATIIWNSAIIGYADSVKGRFIVSRDNAKNSLYLQMNSLRAEDMALYYCAKDMCSRSGCPDGYFDSWGQGTLVTVSS
VL: DIQMTQSPSSVSASVGDRVTITCRASQHISSWLAWYQQKPGKAPNLLIYAASSLQSGVSSRFSGSGSGTDFTLTISSLQPEDFATYYCQQANRFPLTFGGGTKLEIKR

- Kd (Human CD1d/β2M): 1120 pM
B16: 401.11.84 (antibody, name in Kabat numbering, V domains shown)
VH: QVQLVGSGGGLVKPGRSLRLSCAASGFTFDDYAMHWVRQAPGKGLEWVATIIWNSAIIGYADSVKGRFIVSRDNAKNSLYLQMNSLRAEDMALYYCAKDMCSSRGCPDGYFDSWGQGTLVTVSS
VL: DIQMTQSPSSVSASVGDRVTITCRASQHISSWLAWYQQKPGKAPNLLIYAASSLQSGVSSRFSGSGSGTDFTLTISSLQPEDFATYYCQQANRFPLTFGGGTKLEIKR

- Kd (Human CD1d/β2M): 552 pM
B17: 401.11.81 (antibody, name in Kabat numbering, V domains shown)
VH: QVQLVGSGGGLVKPGRSLRLSCAASGFTFDDYAMHWVRQAPGKGLEWVATIIWNSAIIGYADSVKGRFIVSRDNAKNSLYLQMNSLRAEDMALYYCAKDMCSSLGCPDGYFDSWGQGTLVTVSS
VL: DIQMTQSPSSVSASVGDRVTITCRASQHISSWLAWYQQKPGKAPNLLIYAASSLQSGVSSRFSGSGSGTDFTLTISSLQPEDFATYYCQQANRFPLTFGGGTKLEIKR

- Kd (Human CD1d/β2M): 93.3 pM
B18: 401.11.74 (antibody, name in Kabat numbering, V domains shown)
VH: QVQLVGSGGGLVKPGRSLRLSCAASGFTFDDYAMHWVRQAPGKGLEWVATIIWNSAIIGYADSVKGRFIVSRDNAKNSLYLQMNSLRAEDMALYYCAKDMCSKSGCPDGYFDSWGQGTLVTVSS
VL: DIQMTQSPSSVSASVGDRVTITCRASQHISSWLAWYQQKPGKAPNLLIYAASSLQSGVSSRFSGSGSGTDFTLTISSLQPEDFATYYCQQANRFPLTFGGGTKLEIKR

- binding result (Human CD1d/β2M): no binding
B19: 401.11.79 (antibody, name in Kabat numbering, V domains shown)
VH: QVQLVGSGGGLVKPGRSLRLSCAASGFTFDDYAMHWVRQAPGKGLEWVATIIWNSAIIGYADSVKGRFIVSRDNAKNSLYLQMNSLRAEDMALYYCAKDMCSSTGCPDGYFDSWGQGTLVTVSS
VL: DIQMTQSPSSVSASVGDRVTITCRASQHISSWLAWYQQKPGKAPNLLIYAASSLQSGVSSRFSGSGSGTDFTLTISSLQPEDFATYYCQQANRFPLTFGGGTKLEIKR
